First the molecules themselves.
T1: human calcitonin receptor (human, UniProt P30988 25-474)
T1 construct: whole, on cells; also called hCTR; hCT
T1 sequence (looked up): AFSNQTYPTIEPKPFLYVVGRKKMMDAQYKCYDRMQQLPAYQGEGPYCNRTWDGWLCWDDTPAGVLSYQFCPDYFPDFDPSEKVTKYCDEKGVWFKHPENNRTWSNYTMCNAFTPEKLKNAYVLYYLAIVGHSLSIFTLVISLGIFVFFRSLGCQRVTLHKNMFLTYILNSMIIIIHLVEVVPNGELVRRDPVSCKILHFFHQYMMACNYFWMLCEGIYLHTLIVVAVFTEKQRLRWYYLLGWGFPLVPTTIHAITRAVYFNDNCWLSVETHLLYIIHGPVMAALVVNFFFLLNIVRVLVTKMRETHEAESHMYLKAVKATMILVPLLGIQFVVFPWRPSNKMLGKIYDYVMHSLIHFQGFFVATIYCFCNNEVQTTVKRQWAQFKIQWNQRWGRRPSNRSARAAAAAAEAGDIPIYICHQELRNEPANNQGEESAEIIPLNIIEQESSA

B1: N^ε1-[(4S)-4-carboxy-4-(19-carboxynonadecanoylamino)butanoyl]-[Arg17,Pro21,Pro27,His34]-h-amylin (peptide)
peptide: K([γGlu-C20 diacid])CNTATCATQRLANFLRHSSPNFGAIPSSTNVGHNTY-NH2
modifications: disulfide 2-7; N-terminus assumed
SMILES: CC[C@H](C)[C@H](NC(=O)[C@H](C)NC(=O)CNC(=O)[C@H](Cc1ccccc1)NC(=O)[C@H](CC(N)=O)NC(=O)[C@@H]1CCCN1C(=O)[C@H](CO)NC(=O)[C@H](CO)NC(=O)[C@H](Cc1c[nH]cn1)NC(=O)[C@H](CCCNC(=N)N)NC(=O)[C@H](CC(C)C)NC(=O)[C@H](Cc1ccccc1)NC(=O)[C@H](CC(N)=O)NC(=O)[C@H](C)NC(=O)[C@H](CC(C)C)NC(=O)[C@H](CCCNC(=N)N)NC(=O)[C@H](CCC(N)=O)NC(=O)[C@@H](NC(=O)[C@H](C)NC(=O)[C@@H]1CSSC[C@H](NC(=O)[C@@H](N)CCCCNC(=O)CC[C@H](NC(=O)CCCCCCCCCCCCCCCCCCC(=O)O)C(=O)O)C(=O)N[C@@H](CC(N)=O)C(=O)N[C@@H]([C@@H](C)O)C(=O)N[C@@H](C)C(=O)N[C@@H]([C@@H](C)O)C(=O)N1)[C@@H](C)O)C(=O)N1CCC[C@H]1C(=O)N[C@@H](CO)C(=O)N[C@@H](CO)C(=O)N[C@H](C(=O)N[C@@H](CC(N)=O)C(=O)N[C@H](C(=O)NCC(=O)N[C@@H](Cc1c[nH]cn1)C(=O)N[C@@H](CC(N)=O)C(=O)N[C@H](C(=O)N[C@@H](Cc1ccc(O)cc1)C(N)=O)[C@@H](C)O)C(C)C)[C@@H](C)O
notes: also called compound 77
B2: N^ε1-[(4S)-4-carboxy-4-[[(4S)-4-carboxy-4-(19-carboxynonadecanoylamino)butanoyl]amino]butanoyl]-[Arg17,Pro21,Pro27,His34]-h-amylin (peptide)
peptide: K([γGlu-γGlu-C20 diacid])CNTATCATQRLANFLRHSSPNFGAIPSSTNVGHNTY-NH2
modifications: disulfide 2-7; N-terminus assumed
SMILES: CC[C@H](C)[C@H](NC(=O)[C@H](C)NC(=O)CNC(=O)[C@H](Cc1ccccc1)NC(=O)[C@H](CC(N)=O)NC(=O)[C@@H]1CCCN1C(=O)[C@H](CO)NC(=O)[C@H](CO)NC(=O)[C@H](Cc1c[nH]cn1)NC(=O)[C@H](CCCNC(=N)N)NC(=O)[C@H](CC(C)C)NC(=O)[C@H](Cc1ccccc1)NC(=O)[C@H](CC(N)=O)NC(=O)[C@H](C)NC(=O)[C@H](CC(C)C)NC(=O)[C@H](CCCNC(=N)N)NC(=O)[C@H](CCC(N)=O)NC(=O)[C@@H](NC(=O)[C@H](C)NC(=O)[C@@H]1CSSC[C@H](NC(=O)[C@@H](N)CCCCNC(=O)CC[C@H](NC(=O)CC[C@H](NC(=O)CCCCCCCCCCCCCCCCCCC(=O)O)C(=O)O)C(=O)O)C(=O)N[C@@H](CC(N)=O)C(=O)N[C@@H]([C@@H](C)O)C(=O)N[C@@H](C)C(=O)N[C@@H]([C@@H](C)O)C(=O)N1)[C@@H](C)O)C(=O)N1CCC[C@H]1C(=O)N[C@@H](CO)C(=O)N[C@@H](CO)C(=O)N[C@H](C(=O)N[C@@H](CC(N)=O)C(=O)N[C@H](C(=O)NCC(=O)N[C@@H](Cc1c[nH]cn1)C(=O)N[C@@H](CC(N)=O)C(=O)N[C@H](C(=O)N[C@@H](Cc1ccc(O)cc1)C(N)=O)[C@@H](C)O)C(C)C)[C@@H](C)O
notes: also called compound 86
B3: N^ε1-[2-[2-[2-(19-carboxynonadecanoylamino)ethoxy]ethoxy]acetyl]-[Arg17,Pro21,Pro27,His34]-h-amylin (peptide)
peptide: K([AEEA-C20 diacid])CNTATCATQRLANFLRHSSPNFGAIPSSTNVGHNTY-NH2
modifications: disulfide 2-7; N-terminus assumed
SMILES: CC[C@H](C)[C@H](NC(=O)[C@H](C)NC(=O)CNC(=O)[C@H](Cc1ccccc1)NC(=O)[C@H](CC(N)=O)NC(=O)[C@@H]1CCCN1C(=O)[C@H](CO)NC(=O)[C@H](CO)NC(=O)[C@H](Cc1c[nH]cn1)NC(=O)[C@H](CCCNC(=N)N)NC(=O)[C@H](CC(C)C)NC(=O)[C@H](Cc1ccccc1)NC(=O)[C@H](CC(N)=O)NC(=O)[C@H](C)NC(=O)[C@H](CC(C)C)NC(=O)[C@H](CCCNC(=N)N)NC(=O)[C@H](CCC(N)=O)NC(=O)[C@@H](NC(=O)[C@H](C)NC(=O)[C@@H]1CSSC[C@H](NC(=O)[C@@H](N)CCCCNC(=O)COCCOCCNC(=O)CCCCCCCCCCCCCCCCCCC(=O)O)C(=O)N[C@@H](CC(N)=O)C(=O)N[C@@H]([C@@H](C)O)C(=O)N[C@@H](C)C(=O)N[C@@H]([C@@H](C)O)C(=O)N1)[C@@H](C)O)C(=O)N1CCC[C@H]1C(=O)N[C@@H](CO)C(=O)N[C@@H](CO)C(=O)N[C@H](C(=O)N[C@@H](CC(N)=O)C(=O)N[C@H](C(=O)NCC(=O)N[C@@H](Cc1c[nH]cn1)C(=O)N[C@@H](CC(N)=O)C(=O)N[C@H](C(=O)N[C@@H](Cc1ccc(O)cc1)C(N)=O)[C@@H](C)O)C(C)C)[C@@H](C)O
notes: also called compound 91
B4: N^-1-[(4S)-4-carboxy-4-(19-carboxynonadecanoylamino)butanoyl]-Gly[Arg1,His14,Arg17,Pro21,Pro27,His34]-h-amylin (peptide)
peptide: {C20 diacid-γGlu}-GRCNTATCATQRLAHFLRHSSPNFGAIPSSTNVGHNTY-NH2
modifications: disulfide 3-8
SMILES: CC[C@H](C)[C@H](NC(=O)[C@H](C)NC(=O)CNC(=O)[C@H](Cc1ccccc1)NC(=O)[C@H](CC(N)=O)NC(=O)[C@@H]1CCCN1C(=O)[C@H](CO)NC(=O)[C@H](CO)NC(=O)[C@H](Cc1c[nH]cn1)NC(=O)[C@H](CCCNC(=N)N)NC(=O)[C@H](CC(C)C)NC(=O)[C@H](Cc1ccccc1)NC(=O)[C@H](Cc1c[nH]cn1)NC(=O)[C@H](C)NC(=O)[C@H](CC(C)C)NC(=O)[C@H](CCCNC(=N)N)NC(=O)[C@H](CCC(N)=O)NC(=O)[C@@H](NC(=O)[C@H](C)NC(=O)[C@@H]1CSSC[C@H](NC(=O)[C@H](CCCNC(=N)N)NC(=O)CNC(=O)CC[C@H](NC(=O)CCCCCCCCCCCCCCCCCCC(=O)O)C(=O)O)C(=O)N[C@@H](CC(N)=O)C(=O)N[C@@H]([C@@H](C)O)C(=O)N[C@@H](C)C(=O)N[C@@H]([C@@H](C)O)C(=O)N1)[C@@H](C)O)C(=O)N1CCC[C@H]1C(=O)N[C@@H](CO)C(=O)N[C@@H](CO)C(=O)N[C@H](C(=O)N[C@@H](CC(N)=O)C(=O)N[C@H](C(=O)NCC(=O)N[C@@H](Cc1c[nH]cn1)C(=O)N[C@@H](CC(N)=O)C(=O)N[C@H](C(=O)N[C@@H](Cc1ccc(O)cc1)C(N)=O)[C@@H](C)O)C(C)C)[C@@H](C)O
notes: also called compound 100
B5: N^-1-[(4S)-4-carboxy-4-(19-carboxynonadecanoylamino)butanoyl]-Gly[Arg1,Ala14,Arg17,Pro21,Pro27,His34]-h-amylin (peptide)
peptide: {C20 diacid-γGlu}-GRCNTATCATQRLAAFLRHSSPNFGAIPSSTNVGHNTY-NH2
modifications: disulfide 3-8
SMILES: CC[C@H](C)[C@H](NC(=O)[C@H](C)NC(=O)CNC(=O)[C@H](Cc1ccccc1)NC(=O)[C@H](CC(N)=O)NC(=O)[C@@H]1CCCN1C(=O)[C@H](CO)NC(=O)[C@H](CO)NC(=O)[C@H](Cc1c[nH]cn1)NC(=O)[C@H](CCCNC(=N)N)NC(=O)[C@H](CC(C)C)NC(=O)[C@H](Cc1ccccc1)NC(=O)[C@H](C)NC(=O)[C@H](C)NC(=O)[C@H](CC(C)C)NC(=O)[C@H](CCCNC(=N)N)NC(=O)[C@H](CCC(N)=O)NC(=O)[C@@H](NC(=O)[C@H](C)NC(=O)[C@@H]1CSSC[C@H](NC(=O)[C@H](CCCNC(=N)N)NC(=O)CNC(=O)CC[C@H](NC(=O)CCCCCCCCCCCCCCCCCCC(=O)O)C(=O)O)C(=O)N[C@@H](CC(N)=O)C(=O)N[C@@H]([C@@H](C)O)C(=O)N[C@@H](C)C(=O)N[C@@H]([C@@H](C)O)C(=O)N1)[C@@H](C)O)C(=O)N1CCC[C@H]1C(=O)N[C@@H](CO)C(=O)N[C@@H](CO)C(=O)N[C@H](C(=O)N[C@@H](CC(N)=O)C(=O)N[C@H](C(=O)NCC(=O)N[C@@H](Cc1c[nH]cn1)C(=O)N[C@@H](CC(N)=O)C(=O)N[C@H](C(=O)N[C@@H](Cc1ccc(O)cc1)C(N)=O)[C@@H](C)O)C(C)C)[C@@H](C)O
B6: N^ε1-[2-[2-[2-[[2-[2-[2-[[(4S)-4-carboxy-4-(19-carboxynonadecanoylamino)butanoyl]amino]ethoxy]ethoxy]acetyl]amino]ethoxy]ethoxy]acetyl]-[Arg17,Pro21,Pro27,His34 … (peptide)
peptide: K([AEEA-AEEA-γGlu-C20 diacid])CNTATCATQRLANFLRHSSPNFGAIPSSTNVGHNTY-NH2
modifications: disulfide 2-7; N-terminus assumed
SMILES: CC[C@H](C)[C@H](NC(=O)[C@H](C)NC(=O)CNC(=O)[C@H](Cc1ccccc1)NC(=O)[C@H](CC(N)=O)NC(=O)[C@@H]1CCCN1C(=O)[C@H](CO)NC(=O)[C@H](CO)NC(=O)[C@H](Cc1c[nH]cn1)NC(=O)[C@H](CCCNC(=N)N)NC(=O)[C@H](CC(C)C)NC(=O)[C@H](Cc1ccccc1)NC(=O)[C@H](CC(N)=O)NC(=O)[C@H](C)NC(=O)[C@H](CC(C)C)NC(=O)[C@H](CCCNC(=N)N)NC(=O)[C@H](CCC(N)=O)NC(=O)[C@@H](NC(=O)[C@H](C)NC(=O)[C@@H]1CSSC[C@H](NC(=O)[C@@H](N)CCCCNC(=O)COCCOCCNC(=O)COCCOCCNC(=O)CC[C@H](NC(=O)CCCCCCCCCCCCCCCCCCC(=O)O)C(=O)O)C(=O)N[C@@H](CC(N)=O)C(=O)N[C@@H]([C@@H](C)O)C(=O)N[C@@H](C)C(=O)N[C@@H]([C@@H](C)O)C(=O)N1)[C@@H](C)O)C(=O)N1CCC[C@H]1C(=O)N[C@@H](CO)C(=O)N[C@@H](CO)C(=O)N[C@H](C(=O)N[C@@H](CC(N)=O)C(=O)N[C@H](C(=O)NCC(=O)N[C@@H](Cc1c[nH]cn1)C(=O)N[C@@H](CC(N)=O)C(=O)N[C@H](C(=O)N[C@@H](Cc1ccc(O)cc1)C(N)=O)[C@@H](C)O)C(C)C)[C@@H](C)O
notes: also called compound 97

Numbered stars: 1 amine (or outer) side, 2 acyl side, 3 side chain; on linkers, the order of the positions; unused ones are H or OH. Bridge positions count the residues as written; N and C are the ends. Side chains are listed from the residue outwards. Ends that are not written are not given here. * marks the point of attachment. C20 diacid = O=C(O)CCCCCCCCCCCCCCCCCCC(=O)*; γGlu = O=C(O)[C@H](CCC(=O)[*:2])N[*:1]; AEEA = NCCOCCOCC(=O)O

For one assay, the target named is T1, human calcitonin receptor. As to the kind of experiment: SPA radioligand competition (125I-calcitonin), membranes of BHK cells with human calcitonin receptor. The gist of the method: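 BHK hCTR membranes 35 ng/μL + SPA beads 0.05 mg/well; buffer 50 mM Hepes pH 7.4, 1 mM CaCl2, 5 mM MgCl₂, 0.1% OA, 0.02% Tween20. 120 min, 25° C., shaking. Scintillation count; IC50 by one-site binding competition.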
For the molecule B1, the IC50 is 50.7 nM.
For the molecule B2, the IC50 was 133 nM.
For the molecule B3, the IC50 was 12 nM.
For B4, the IC50 is 66.3 nM.
B5: the IC50 is 29.2 nM.
For B6, the IC50 was determined as 58.9 nM.

For another assay, the target named is T1, human calcitonin receptor. Put plainly: ratio of IC50 at human calcitonin receptor to IC50 at human amylin receptor (SPA competition assays). The gist of the method:
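Scintillation proximity competition binding on cell membranes at 35 ng/μL with SPA beads, in 50 mM Hepes pH 7.4, 1 mM CaCl2, 5 mM MgCl₂, 0.1% OA, 0.02% Tween20. Incubated 120 min at 25° C with shaking. IC₅₀ from one-site competition fit.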
With B1, the “Ratio hCT/hAmylin binding” value was found to be 118.
Same read-out and setting: under B2 stands 159.
Consider B3, for which the “Ratio hCT/hAmylin binding” value was 101.
Regarding B4, the “Ratio hCT/hAmylin binding” value turned out to be 65.3.
As for B5, the “Ratio hCT/hAmylin binding” value stood at 68.6.
In the case of B6, the “Ratio hCT/hAmylin binding” value came out at 104.

As a reminder, the IC50 is the concentration that gives 50% inhibition.

For the origin of these results see patent US20140087995A1 (published 2014).
